Source: patent US20240409663A1 (CONCEPT TO MEDICINE BIOTECH, published 2024)
Like-named read-outs stand apart in the source and are kept apart here.

How the values were obtained:
human GPC3 on cells [1] = molecular target: T1, human GPC3 on cells (human, UniProt P51654 25-554); test: FACS, HEPG2 cells
human GPC3 on cells [2] = molecular target: T1, human GPC3 on cells; test: FACS, HEPG2 cells; remark: listed apart in the source
human GPC3 on cells [3] = molecular target: T1, human GPC3 on cells; test: FACS, Huh-7 cells
human GPC3 on cells [4] = molecular target: T1, human GPC3 on cells; test: FACS, GPC3-CHOK1 cells
human GPC3 on cells [5] = molecular target: T1, human GPC3 on cells; test: FACS, GPC3-CHOK1 cells; remark: listed apart in the source
human GPC3 on cells [6] = molecular target: T1, human GPC3 on cells; test: cell-based or functional assay
human GPC3 on cells [7] = molecular target: T1, human GPC3 on cells; test: FACS, HEPG2 cells
Text: (§1) FACS was used to evaluate the binding activity of Hu 52H5D3B8-7 and Hu 52H5D3B8-8 with comparison to benchmark antibodies GC33 and Y035 on human GPC3 expressed on CHOK1 cells, Huh-7 cell and HEPG2 cells. In order to evaluate the properties of CDRs and frameworks of Hu 52H5D3B8-7 Ab, two chimeric antibodies were generated. The antibody termed “Hu 52H5D3B8-7/8 CDRs with Y035 FRs” contains the Hu 52H5D3B8-7 CDRs and the Y035 FRs. The antibody termed “Y035 CDRs with Hu 52H5D3B8-7 FRs” represents the chimeric antibody with the Y035 CDRs engrafted to Hu 52H5D3B8-7 FRs.

human GPC3 on cells [8] = molecular target: T1, human GPC3 on cells; test: FACS, Huh-7 cells
Text: as §1

human GPC3 on cells [9] = molecular target: T1, human GPC3 on cells; test: FACS, GPC3-CHOK1 cells
Text: as §1

human GPC3 on cells [10] = molecular target: T1, human GPC3 on cells; test: cell-based or functional assay; remark: listed apart in the source
human GPC3 on cells [11] = molecular target: T1, human GPC3 on cells; test: FACS, GPC3-CHOK1 cells; remark: listed apart in the source
Protocol: To evaluate the antigen binding property, the affinity maturated antibodies were analyzed for their binding to human GPC3 over-expressed CHOK1 cells by FACS as previously described.

human GPC3 on cells [12] = molecular target: T1, human GPC3 on cells; test: cell-based or functional assay; remark: listed apart in the source
human GPC3 on cells [13] = molecular target: T1, human GPC3 on cells; test: cell-based or functional assay; remark: listed apart in the source
human GPC3 on cells [14] = molecular target: T1, human GPC3 on cells; test: FACS, Huh-7 cells; remark: listed apart in the source
Protocol: (§2) To evaluate the antigen binding property, the humanized antibodies were analyzed for their binding to human GPC3 over-expressed CHOK1 cells and Huh-7 cells by FACS. Briefly, GPC3-CHOK1 cells and Huh-7 cells were firstly incubated with Fc blocking reagent at 4° C. for 15 mins. Cells were washed by FACS buffer and divided to each well with 4-fold serially diluted humanized antibodies starting at 10 μg/mL at 4° C. for 60 mins. Cells were washed by FACS buffer and fixed with 2% PFA at RT for 15 mins. […] As different plates might affect the EC50 of 52H5D3B8-VH+VL, the 12 humanized antibodies were separated into two plates.

human GPC3 on cells [15] = molecular target: T1, human GPC3 on cells; test: FACS, GPC3-CHOK1 cells; remark: listed apart in the source
Protocol: as §2

[16] = molecular target: T2, human GPC3-his tag protein (human, UniProt P51654 25-559, limits assumed); test: SPR Biacore 8K, mAb captured, affinity ranking
T2 construct: recombinant soluble antigen used as analyte in all Biacore runs; also called recombinant GPC3 protein; rhGPC3-His; not shown: His tag
Protocol: To evaluate antigen binding activity, the chimeric antibody's affinity was measured by Biacore 8K. Two concentrations with most close affinity to the chimeric antibody's affinity were chosen for the 12 humanized antibodies' affinity detection. Human GPC3-his tag protein was injected over captured antibody for 3 mins at a flow rate of 30 μl/min. The antigen was allowed to dissociate for 720 s.

B1: Y035 (Carsgen Therapeutics, US20190046659) (antibody, from another filing, V domains shown)
VH: EVQLVQSGAEVKKPGASVKVSCKASGYTFSDYEMHWVRQAPGQGLEWMGAIHPGSGDTAYNQRFKGRVTITADKSTSTAYMELSSLRSEDTAVYYCARFYSYAYWGQGTLVTVSA
VL: DIVMTQTPLSLPVTPGEPASISCRSSQSLVHSNGNTYLQWYLQKPGQSPQLLIYKVSNRFSGVPDRFSGSGSGTDFTLKISRVEAEDVGVYYCSQSIYVPYTFGQGTKLEIKR
Binder B1 has an EC50 (human GPC3 on cells [1]) of 1250 pM, an EC50 (human GPC3 on cells [2]) of 1590 pM and an EC50 (human GPC3 on cells [3]) of 1180 pM. It also gave an EC50 (human GPC3 on cells [4]) of 1460 pM, an EC50 (human GPC3 on cells [5]) of 1420 pM and an internalization activity to HEPG2 cells, EC50 (pHAb dye fluorescence) (human GPC3 on cells [6]) of 1.08 µg/mL. The internalization activity to HEPG2 cells, Top (pHAb dye fluorescence) (human GPC3 on cells [6]) was 52000.

B2: Y035 CDRs with Hu 52H5D3B8-7 FRs (antibody, V domains shown)
VH: EVQLVQSGAEVKKPGASVKVSCKASGYTFTDYEMHWVRQAPGQGLEWMGAIHPGSGDTAYNQRFKGRVTMTADKSISTAYMELSRLRSDDTAVYYCTRFYSYAYWGQGTLVTVSS
VL: DVVMTQTPLSLSVTPGQPASISCRSSQSLVHSNGNTYLQWYLQKPGQSPQLLIYKVSNRFSGVPDRFSGSGSGTDFTLKISRVEAEDVGVYYCSQSIYVPYTFGGGTKVEIK
B2 gave an EC50 (human GPC3 on cells [7]) of 1050 pM, an EC50 (human GPC3 on cells [8]) of 667 pM and an EC50 (human GPC3 on cells [9]) of 985 pM. For the same binder, the “internalization activity to HEPG2 cells, EC50 (pHAb dye fluorescence)” value (human GPC3 on cells [10]) was 1.11 µg/mL.

B3: Hu 52H5D3B8-7/8 CDRs with Y035 FRs (antibody, V domains shown)
VH: EVQLVQSGAEVKKPGASVKVSCKASGYTHSDYEMHWVRQAPGQGLEWMGAIHPGSGGTAYNQKFKGRVTITADKSTSTAYMELSSLRSEDTAVYYCARFYSYAYWGQGTLVTVSA
VL: DIVMTQTPLSLPVTPGEPASISCRSSQSLVHSNGNTYLQWYLQKPGQSPQLLIYKVSNRFSGVPDRFSGSGSGTDFTLKISRVEAEDVGVYYCSQSIHVPYTFGQGTKLEIKR
B3 was tested, and the EC50 (human GPC3 on cells [7]) was 1160 pM, the EC50 (human GPC3 on cells [8]) was 782 pM and the EC50 (human GPC3 on cells [9]) was 798 pM. For the same binder, the “internalization activity to HEPG2 cells, EC50 (pHAb dye fluorescence)” value (human GPC3 on cells [10]) was 1.14 µg/mL.

B4: 52H5D3B8-18#-VH2+VL3 (antibody, V domains shown)
VH: QVQLVQSGAEVKKPGASVKVSCKASGYTFTRYEMHWVRQAPGQGLEWIGAIHPGSGGTAYNSKFKGRVTMTADTSTSTVYMELSSLRSEDTAVYYCTRYYSYAYWGQGTLVTVSS
VL: DIVMTQTPLSLSVTPGQPASISCRSSQSLVHSNGNTYLQWYLQKPGQSPKLLIYKVSNRYSGVPDRFSGSGSGTDFTLKISRVEAEDVGVYYCVESIHVPYTFGGGTKLEIK
B4 was tested, and the EC50 (human GPC3 on cells [11]) was 177 pM, the “EC50 of ADCC signaling (Jurkat-hCD16a-NFAT luciferase reporter), HEPG2 cells” value (human GPC3 on cells [12]) was 202 pM and the “EC50 of ADCC signaling (Jurkat-hCD16a-NFAT luciferase reporter), Huh-7 cells” value (human GPC3 on cells [12]) was 480 pM. The “EC50 of ADCC cytotoxicity (primary NK cells, LDH), HEPG2 cells” value (human GPC3 on cells [13]) was 149 pM and the “EC50 of ADCC cytotoxicity (primary NK cells, LDH), Huh-7 cells” value (human GPC3 on cells [13]) was 82.6 pM.

B5: Hu 52H5D3B8-11 (antibody, V domains shown)
VH: EVQLVQSGAEVKKPGASVKVSCKASGYTFTDYEMHWVRQAPGQGLEWIGAIHPGSGGTAYNQKFKGKATLTADKSISTAYMELSRLRSDDTAVYYCTRFYSYAYWGQGTLVTVSS
VL: DVVMTQTPLSLSVTPGQPASISCRSSQSLVHSNGNTYLQWYLQKPGQSPQLLIYKVSNRFSGVPDRFSGSGSGTDFTLKISRVEAEDVGVYYCSQSIHVPYTFGGGTKVEIK
notes: humanized 52H5D3B8; also called 52H5D3B8 VH5 + VL0
For B5, the EC50 (human GPC3 on cells [14]) was 0.0288 µg/mL, the EC50 (human GPC3 on cells [15]) was 0.04 µg/mL and the Kd [16] was 3060 pM. The koff [16] was 0.000905 s⁻¹ and the kon [16] was 295000 M⁻¹ s⁻¹.
